What is called Kd is the free concentration of one partner at which half of the binding sites on the other are occupied at equilibrium, for simple one-to-one binding.

B10: UPF3B-FL (residues 1-470) (natural protein)
chain: MKEEKEHRPKEKRVTLLTPAGATGSGGGTSGDSSKGEDKQDRNKEKKEALSKVVIRRLPPTLTKEQLQEHLQPMPEHDYFEFFSNDTSLYPHMYARAYINFKNQEDIILFRDRFDGYVFLDNKGQEYPAIVEFAPFQKAAKKKTKKRDTKVGTIDDDPEYRKFLESYATDNEKMTSTPETLLEEIEAKNRELIAKKTTPLLSFLKNKQRMREEKREERRRREIERKRQREEERRKWKEEEKRKRKDIEKLKKIDRIPERDKLKDEPKIKLLKKPEKGDEKELDKREKAKKLDKENLSDERASGQSCTLPKRSDSELKDEKPKRPEDESGRDYREREREYERDQERILRERERLKRQEEERRRQKERYEKEKTFKRKEEEMKKEKDTLRDKGKKAESTESIGSSEKTEKKEEVVKRDRIRNKDRPAMQLYQPGARSRNRLCPPDDSTKSGDSAAERKQESGISHRKEGGEE
B11: Avi-UPF2-MIF4GIII (biotinylated) (domain or fragment)
chain: EKTVKKKRPPLQEYVRKLLYKDLSKVTTEKVLRQMRKLPWQDQEVKDYVICCMINIWNVKYNSIHCVANLLAGLVLYQEDVGIHVVDGVLEDIRLGMEVNQPKFNQRRISSAKFLGELYNYRMVESAVIFRTLYSFTSFGVNPDGSPSSLDPPEHLFRIRLVCTILDTCGQYFDRGSSKRKLDCFLVYFQRYVWWKKSLEVWTKDHPFPIDIDYMISDTLELLRPKIKLCNSLEESIRQVQDLEREFLIKLGLVNDKDSKDSMTEGENLEEDEEEEEGGAETEEQSGNESEVNE
modifications: biotin on the Avi tag (BirA)

Experiment [1] addresses Avi-UPF2-MIF4GIII (biotinylated) (UniProt Q9HAU5). The experiment is described as follows: SPR. Background: In SPR one partner is held on a chip, and binding of the other changes the refractive index at the surface.
Experiment [2] has as its target B11. As to the kind of experiment: SPR.
In another experiment the target is T1, UPF2L (120-1227) (UniProt Q9HAU5 120-1227).
T1 sequence: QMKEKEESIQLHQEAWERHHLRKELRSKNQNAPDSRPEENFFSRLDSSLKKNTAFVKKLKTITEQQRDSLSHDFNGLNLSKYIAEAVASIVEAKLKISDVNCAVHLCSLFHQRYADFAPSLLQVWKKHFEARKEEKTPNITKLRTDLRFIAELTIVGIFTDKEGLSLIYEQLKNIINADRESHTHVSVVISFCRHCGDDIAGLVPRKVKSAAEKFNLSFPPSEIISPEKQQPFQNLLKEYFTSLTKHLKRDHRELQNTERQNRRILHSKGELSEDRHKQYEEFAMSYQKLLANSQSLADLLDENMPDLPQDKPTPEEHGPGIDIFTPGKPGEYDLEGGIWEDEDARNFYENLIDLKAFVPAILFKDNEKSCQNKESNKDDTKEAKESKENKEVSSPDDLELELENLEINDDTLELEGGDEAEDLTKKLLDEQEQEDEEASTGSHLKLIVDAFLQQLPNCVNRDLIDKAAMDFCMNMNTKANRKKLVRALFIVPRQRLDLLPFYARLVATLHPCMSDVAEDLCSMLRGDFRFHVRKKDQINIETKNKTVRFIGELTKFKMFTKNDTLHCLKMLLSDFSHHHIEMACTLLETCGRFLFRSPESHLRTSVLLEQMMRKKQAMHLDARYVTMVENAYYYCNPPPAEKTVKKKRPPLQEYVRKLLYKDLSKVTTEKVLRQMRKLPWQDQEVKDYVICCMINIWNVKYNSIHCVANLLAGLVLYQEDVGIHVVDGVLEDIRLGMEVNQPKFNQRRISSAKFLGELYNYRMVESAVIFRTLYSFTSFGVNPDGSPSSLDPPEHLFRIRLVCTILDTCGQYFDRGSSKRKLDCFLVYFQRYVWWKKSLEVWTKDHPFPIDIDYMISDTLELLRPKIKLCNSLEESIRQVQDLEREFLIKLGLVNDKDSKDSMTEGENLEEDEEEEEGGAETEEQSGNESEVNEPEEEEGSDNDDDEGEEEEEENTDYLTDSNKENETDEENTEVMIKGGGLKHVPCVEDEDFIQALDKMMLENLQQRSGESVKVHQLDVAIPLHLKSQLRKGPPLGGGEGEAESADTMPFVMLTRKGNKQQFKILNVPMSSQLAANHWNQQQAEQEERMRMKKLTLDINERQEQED
As to the kind of experiment: native gel or EMSA. (In general: A gel shift assay detects complexes by their altered migration in electrophoresis.)

Experiment [3] addresses B10. The experiment is described as follows: SPR.

Regarding “full-length UPF3A-WT (from UniProt Q9H1J1 1-476) (natural protein)”, in experiment [1], the dissociation constant (Kd) is 0.048 nM.

B1: UPF3B-41-189 (domain or fragment)
chain: DRNKEKKEALSKVVIRRLPPTLTKEQLQEHLQPMPEHDYFEFFSNDTSLYPHMYARAYINFKNQEDIILFRDRFDGYVFLDNKGQEYPAIVEFAPFQKAAKKKTKKRDTKVGTIDDDPEYRKFLESYATDNEKMTSTPETLLEEIEAKN
For B1, binding in experiment [2] was characterised by a dissociation constant (Kd) of 3.6 nM.

B2: UPF3B-41-189 Y167D (domain or fragment)
chain: DRNKEKKEALSKVVIRRLPPTLTKEQLQEHLQPMPEHDYFEFFSNDTSLYPHMYARAYINFKNQEDIILFRDRFDGYVFLDNKGQEYPAIVEFAPFQKAAKKKTKKRDTKVGTIDDDPEYRKFLESDATDNEKMTSTPETLLEEIEAKN
On to B2, for which the dissociation constant Kd in experiment [2] was determined as 7.4 nM.

B3: UPF3B-41-189 Y160A (domain or fragment)
chain: DRNKEKKEALSKVVIRRLPPTLTKEQLQEHLQPMPEHDYFEFFSNDTSLYPHMYARAYINFKNQEDIILFRDRFDGYVFLDNKGQEYPAIVEFAPFQKAAKKKTKKRDTKVGTIDDDPEARKFLESYATDNEKMTSTPETLLEEIEAKN
B3 showed a Kd in experiment [2] of 88 nM.

B4: UPF3B-41-189 Y160D (domain or fragment)
chain: DRNKEKKEALSKVVIRRLPPTLTKEQLQEHLQPMPEHDYFEFFSNDTSLYPHMYARAYINFKNQEDIILFRDRFDGYVFLDNKGQEYPAIVEFAPFQKAAKKKTKKRDTKVGTIDDDPEDRKFLESYATDNEKMTSTPETLLEEIEAKN
With B4, in experiment [2], the Kd amounted to 140 nM.

B5: UPF3B-41-189 Y160A+Y167A (domain or fragment)
chain: DRNKEKKEALSKVVIRRLPPTLTKEQLQEHLQPMPEHDYFEFFSNDTSLYPHMYARAYINFKNQEDIILFRDRFDGYVFLDNKGQEYPAIVEFAPFQKAAKKKTKKRDTKVGTIDDDPEARKFLESAATDNEKMTSTPETLLEEIEAKN
In the case of B5, the dissociation constant Kd in experiment [2] is roughly 130 nM.

B6: UPF3B-41-189 F163A (domain or fragment)
chain: DRNKEKKEALSKVVIRRLPPTLTKEQLQEHLQPMPEHDYFEFFSNDTSLYPHMYARAYINFKNQEDIILFRDRFDGYVFLDNKGQEYPAIVEFAPFQKAAKKKTKKRDTKVGTIDDDPEYRKALESYATDNEKMTSTPETLLEEIEAKN
On to B6, for which the Kd in experiment [2] was found to be 90 nM.

B7: UPF3B-41-189 Y167A (domain or fragment)
chain: DRNKEKKEALSKVVIRRLPPTLTKEQLQEHLQPMPEHDYFEFFSNDTSLYPHMYARAYINFKNQEDIILFRDRFDGYVFLDNKGQEYPAIVEFAPFQKAAKKKTKKRDTKVGTIDDDPEYRKFLESAATDNEKMTSTPETLLEEIEAKN
B7: in experiment [2], the Kd was 3.3 nM. Compared with the last molecule, the Kd is about 27-fold lower.

B8: UPF3B-41-189 Y160D+Y167D (domain or fragment)
chain: DRNKEKKEALSKVVIRRLPPTLTKEQLQEHLQPMPEHDYFEFFSNDTSLYPHMYARAYINFKNQEDIILFRDRFDGYVFLDNKGQEYPAIVEFAPFQKAAKKKTKKRDTKVGTIDDDPEDRKFLESDATDNEKMTSTPETLLEEIEAKN
Take B8: the dissociation constant Kd in experiment [2] was roughly 130 nM.

B9: UPF3B-41-143 (domain or fragment)
chain: DRNKEKKEALSKVVIRRLPPTLTKEQLQEHLQPMPEHDYFEFFSNDTSLYPHMYARAYINFKNQEDIILFRDRFDGYVFLDNKGQEYPAIVEFAPFQKAAKKK
Molecule B9 gave a Kd in experiment [2] of 720 nM.
For B10, the binding result in the experiment with UPF2L (120-1227) was “binds”.
In turn, B11 yielded a Kd in experiment [3] of 0.47 nM.

B12: UPF3A-58-206-Iso1 (domain or fragment)
chain: KPREEKRTALSKVVIRRLPPGLTKEQLEEQLRPLPAHDYFEFFAADLSLYPHLYSRAYINFRNPDDILLFRDRFDGYIFLDSKGLEYPAVVEFAPFQKIAKKKLRKKDAKTGSIEDDPEYKKFLETYCVEEEKTSANPETLLGEMEAKT
In experiment [2], B12 returned a dissociation constant Kd of 0.22 nM.

Source of the values: paper doi:10.1101/2022.04.03.486873 (bioRxiv, 2022).
